Source: the supplement of paper PMC9170038

Test system: MS2 coat protein
Assay: apparent KD of MS2 coat protein; higher = weaker reporter binding
Conditions: Eterna round: R107
Outline: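 Designed RNA switches were transcribed on-chip from Illumina sequencing clusters and titrated with SNAP-549-labelled MS2 coat protein in twofold steps from 0.7 or 1.5 nM up to 3 µM. Each step lasted 0.8–1.5 h at first and 10–20 min by the end, in 100 mM Tris-HCl pH 7.5, 80 mM KCl and 4 mM MgCl2, without or with constant ligand. Apparent KD is the median, for each design, of fits to normalised cluster binding curves.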

[1] = input ligand: theophylline 20 uM
[2] = input ligand: theophylline 2 mM
[3] = input ligand: tryptophan 2.4 mM

Sequence	apparent KD of MS2 coat protein (input ligand: arginine 13.2 mM) [nM]	apparent KD of MS2 coat protein [1] [nM]	apparent KD of MS2 coat protein [2] [nM]	apparent KD of MS2 coat protein [3] [nM]	apparent KD of MS2 coat protein (input ligand: none) [nM]
AUACAUGAGGAUCACCCAUGUGAUGGCCGGCGAGGACCGGUACGGCCGCCACUCGUGAUCCGUCCUGAGAGCAAAGCCCUCAGCA [Onedti]	17.3	287	237	–	–
GCCAAAAUACCCGAUACCAGUAUUAAUAGCACAACCUCACACAUGAGGAUCACCCAUGUAUACCCUUGGCAGCGGCCUAACAUAA [theeternabot_exclusion_MS2_Theo_B_49]	30.5	55.3	–	36.9	–
GGAGUAGGAAACUAUUCCAAUCCUCGUGAACGAGGACCGGUACGGCCGCCACUCGAUAAAUAAAUACAUGAGGAUCACCCAUGUA [Ex Tryptophan A 22]	20	28.9	34.1	–	–
UGGGUCGGAUGAGUAAAUUGUCCGACGUAUCGAGGACCGGUACGGCCGCCACUCGGUUGUACAUGAGGAUCACCCAUGUCAGGGU [#1 Same State - Tryptophan A Attempt #16 (HarryS)]	40.5	351	536	206	436
ACAUGAGGAUCACCCAUGUCAGGGCACGAUACCAGCUGAUCCGAUGGCCCUUGGCAGCGUUACGUGUGGUCAUGAGGAUCACCCG [pjbmullin]	55.5	101	76.8	64.7	59.3
AAGGUGAUCCCAGAUACCAGCCUAACAUGAGGAUCACCCAUGUUUGGGACGAAAGUCCCAGGCCCUUGGCAGCUGGGUUGCCAAG [SSTheo B #17]	48.8	131	–	185	–
UGUAACAUGAGGAUCACCCAUGUGAGUGAUACCAGAUAAGUAGUAGUCCCUUGGCAGCAUAUUGGGCGAGUGUAUAGUCUAUGCG [Same State - Theophylline A (Freestyle 9)]	125	207	–	152	–
UCACAUGAGGAUCACCCAUGUGUCAGAGAAGGAGCGGCCGCAAGGCCAGGUAGGUCGCUCGGGUAUGGUGAGGUUCACCCGUGUG [#1 Exclusion - Arginine A Attempt #13 (Inspired by cyborg)]	28.3	73	57	56.7	47.3
GCACGACAUGAGGAUCACCCAUGUGCAGAUACCAGUAGGAUAUCCUACCCUUGGCAGCUGAGUAGAUCUGGAGGACUAUAGGUAA [Same State Theophylline A GF9]	15.5	23	21.2	18.3	17.9
CCUAUGCAGUCGGCCGCCACUGAACAUGAGGAUCACCCAUGUUAUUAUAAAUAUGGUCCUAAAAUCAGGACCGGGACUGUAUAGG [Ex Tryptophan B 8]	42.7	67.9	90	–	–
UAAUCAGUGCCGGUUCUCGGAUCCUCAUGUCGAGGACCGGUACGGCCGCCACUCGAAACAUGAGGAUCACCCAUGUAAUAAUAAU [#09 Exclusion Tryptophan A]	44.2	116	103	–	–
AAGGAACAUGAGGAUCACCCAUGUACCGAAGGAGCGGCAGAGAUGCCAGGUAGGUCGCGGUACUUGCCGGGUCAUUCAUGCAGAG [Arraiste]	39.1	30.6	32.8	23.9	26.3
UGUAUGGACUGAAGGAGCGGGUUGAUAACCUGAGGAUCAUCCAGGUAAAAGGCGAAAGCCACCCAGGUAGGUCGCAGUCCAUACU	199	344	433	322	–
GCAUCCUAGUCGGCCGCCACUGACAUGAGGAUCACCCAUGUACAUGAGGAUCACCCAUGUUGUAGCAGGACCGGGACUAGGAUGC [SS Tryp B #17]	176	277	295	75.6	259
GACCUUAUCUGAAGGAGCGAGGUAAAUAGGGAUAGGAACAUGAGGAUCACCCAUGUGCGGCCUCAGGUAGGUCGCAGAUGAGAUU [Exclusion Arginine B GF28]	42	103	179	113	93.7
AACAUGAGGAUCACCCAUGUCCCUCCCUCCCGAGGACCGGUACGGCCGCCACUCGCCCUCCCUCCCUAAGAAAGAAAGAAGAAGA [Same State - Trypopjan A]	54	38	38.5	32.1	37.9
GGCGACAUGAGGAUCACCCAUGUGACACCUCGAGGACCGGUACGGCCGCCACUCGUAACCUGCACUAUAGCUACCACGAUUAGCC [theeternabot_sameState_MS2_Trp_A_44]	84.3	238	233	–	–
